Source: EP4782466A1, “FUSION PROTEIN FOR INACTIVATING CORONAVIRUS AND USE THEREOF” (priority 2023, dated 2025)

Columns and labels:
Experiment in all cases: cell-based or functional assay
[1] = target: S protein of SARS-CoV-2 Beta (B.1.351) (SARS-CoV-2 Beta (B.1.351))
[2] = target: S protein of SARS-CoV-2 Gamma (P.1) (SARS-CoV-2 Gamma (P.1))
[3] = target: S protein of SARS-CoV-2 Omicron BA.5 (SARS-CoV-2 BA.5)
[4] = target: S protein of SARS-CoV-2 Omicron BA.2.9 (SARS-CoV-2 BA.2.9)
[5] = target: S protein of SARS-CoV-2 Omicron BA.3 (SARS-CoV-2 BA.3)
[6] = target: S protein of SARS-CoV-2 Omicron BA.4.6 (SARS-CoV-2 BA.4.6)
[7] = target: S protein of SARS-CoV-2 Omicron BA.2.75 (SARS-CoV-2 BA.2.75)
[8] = target: S protein of SARS-CoV-2 Omicron XBB (SARS-CoV-2 XBB)
[9] = target: S protein of SARS-CoV-2 Lambda (SARS-CoV-2 Lambda)
[10] = target: S protein of SARS-CoV-2 Omicron BA.2 (SARS-CoV-2 BA.2)
[11] = target: S protein of SARS-CoV-2 Omicron BA.2.12.1 (SARS-CoV-2 BA.2.12.1)
[12] = target: S protein of SARS-CoV-2 Omicron BA.2.2 (SARS-CoV-2 BA.2.2)
[13] = target: S protein of SARS-CoV-2 Delta (B.1.617.2) (SARS-CoV-2 Delta (B.1.617.2))
[14] = target: S protein of SARS-CoV-2 Omicron BQ.1 (SARS-CoV-2 BQ.1)
[15] = target: S protein of SARS-CoV-2 Omicron BF.7 (SARS-CoV-2 BF.7)
[16] = target: S protein of SARS-CoV-2 Omicron BA.1 (SARS-CoV-2 BA.1)
[17] = target: S protein of SARS-CoV-2 Alpha (B.1.1.7) (SARS-CoV-2 Alpha (B.1.1.7))

Substance	IC50, inhibition of pseudovirus infection (Caco-2, luciferase) [1] [nM]	IC50, inhibition of pseudovirus infection (Caco-2, luciferase) [2] [nM]	IC50, inhibition of pseudovirus infection (Caco-2, luciferase) [3] [nM]	IC50, inhibition of pseudovirus infection (Caco-2, luciferase) [4] [nM]	IC50, inhibition of pseudovirus infection (Caco-2, luciferase) [5] [nM]	IC50, inhibition of pseudovirus infection (Caco-2, luciferase) [6] [nM]	IC50, inhibition of pseudovirus infection (Caco-2, luciferase) [7] [nM]	IC50, inhibition of pseudovirus infection (Caco-2, luciferase) [8] [nM]	IC50, inhibition of pseudovirus infection (Caco-2, luciferase) [9] [nM]	IC50, inhibition of pseudovirus infection (Caco-2, luciferase) [10] [nM]	IC50, inhibition of pseudovirus infection (Caco-2, luciferase) [11] [nM]	IC50, inhibition of pseudovirus infection (Caco-2, luciferase) [12] [nM]	IC50, inhibition of pseudovirus infection (Caco-2, luciferase) [13] [nM]	IC50, inhibition of pseudovirus infection (Caco-2, luciferase) [14] [nM]	IC50, inhibition of pseudovirus infection (Caco-2, luciferase) [15] [nM]	IC50, inhibition of pseudovirus infection (Caco-2, luciferase) [16] [nM]	IC50, inhibition of pseudovirus infection (Caco-2, luciferase) [17] [nM]	also measured
AL7E protein (ACE2-linker-EK1 fusion protein with (GGGGS)7 linker)	0.24	0.25	0.31	0.21	0.11	0.56	1.04	0.94	0.27	0.12	0.23	0.28	0.31	1.14	0.93	0.14	0.21	
AL2E protein (ACE2-linker-EK1 fusion protein with (GGGGS)2 linker) (from UniProt Q9BYF1 18-615)	0.27	0.39	0.1	0.43	0.58	1.03	0.69	0.64	0.09	0.16	0.26	0.4	0.32	0.4	0.46	0.18	0.22	
EK1 polypeptide	257	277	568	199	136	473	331	233	995	297	342	162	150	136	584	70.5	268	
AL6E protein (ACE2-linker-EK1 fusion protein with (GGGGS)6 linker)	0.25	0.28	0.13	0.09	0.27	1.96	1.4	0.23	0.07	0.21	0.17	0.24	0.31	0.86	1.01	0.11	0.25	
ACE2 protein alone (ACE2 peptidase domain alone) (from UniProt Q9BYF1 18-615) (receptor)	16.1	15.1	15.3	7.63	6.51	65.9	26.5	12.7	12.8	12.6	10.6	11.9	4.85	21.8	101	18.7	6.2	EC50, inactivation of pseudovirus (Caco-2, luciferase) [1]: 123 nM; EC50, inactivation of pseudovirus (Caco-2, luciferase) [2]: 88.5 nM; EC50, inactivation of pseudovirus (Caco-2, luciferase) [3]: 336 nM; EC50, inactivation of pseudovirus (Caco-2, luciferase) [4]: 407 nM; EC50, inactivation of pseudovirus (Caco-2, luciferase) [5]: 52.1 nM; EC50, inactivation of pseudovirus (Caco-2, luciferase) [6]: 1160 nM; EC50, inactivation of pseudovirus (Caco-2, luciferase) [7]: 677 nM; EC50, inactivation of pseudovirus (Caco-2, luciferase) [8]: 212 nM; EC50, inactivation of pseudovirus (Caco-2, luciferase) [9]: 116 nM; EC50, inactivation of pseudovirus (Caco-2, luciferase) [10]: 329 nM; EC50, inactivation of pseudovirus (Caco-2, luciferase) [11]: 76.1 nM; EC50, inactivation of pseudovirus (Caco-2, luciferase) [12]: 476 nM; EC50, inactivation of pseudovirus (Caco-2, luciferase) [13]: 605 nM; EC50, inactivation of pseudovirus (Caco-2, luciferase) [14]: 149 nM; EC50, inactivation of pseudovirus (Caco-2, luciferase) [15]: 192 nM; EC50, inactivation of pseudovirus (Caco-2, luciferase) [16]: 82.2 nM; EC50, inactivation of pseudovirus (Caco-2, luciferase) [17]: 243 nM
